From US20190184015A1, “IRRADIATION TREATMENT OF NEUROLOGICAL SENSATIONS BY PHOTOABLATION” (European Molecular Biology Laboratory, priority 2016, published 2019)
Positions count from the first letter of the chain named. Names may count otherwise. “Also recorded” adds a separate entry of the source.

How the values were obtained:
[1] = test system: HEK293T cells expressing TrkB/p75; assay: BDNF^SNAP-IR700 photoablation of HEK293T cells (propidium iodide); assay type: cell-based; details: HEK293T cells expressing TrkB/p75; 24 hours after brief illumination
From the text: In initial experiments BDNF^SNAP-IR700 was applied to HEK293T cells expressing TrkB/p75 and cell death assayed following near infrared illumination.

[2] = test system: Calcipotriol model of atopic dermatitis; assay: Calcipotriol model of atopic dermatitis; details: prevention: injection and near IR illumination 3 days prior to Calcipotriol
TrkB positive afferents = assay: Innervation of skin and DRG neuron counts after photoablation; assay type: in vivo, mouse; details: 7 days after photoablation (13 days post-SNI)
From the text: Prior to photoablation, TrkB positive lanceolate endings were detected around hair follicles (FIG. 9a) and innervating Meissner corpuscles in the plantar surface of the paw. […] It was further investigated whether loss of TrkB^CreERT2 neurons was also evident at the level of the cell soma by analyzing the number of TrkB^CreERT2 positive neurons in the DRG.

primary keratinocytes = assay: In-vitro photo-ablation of primary keratinocytes (propidium iodide staining); assay type: cell-based, mouse; details: wild type keratinocytes; near infra-red light; 24 hours after
Protocol: 1 μM IL31^SNAP and 3 μM BG-IR700 were coupled for 1 hour at 37° C. The coupling reaction was applied for 10 minutes at 37° C. on primary wild type and IL31RA^−/− keratinocytes. Cells were then exposed to near infra-red light (680 nm) at 40 J/cm^2 for 2 minutes. 24 hours after light exposure cell death was assessed by Propidium iodide (PI) staining (Invitrogen #P3566) and cells were imaged with an epifluorescent microscope.

TrkB positive neurons = assay: Diphtheria toxin mediated ablation of TrkB+ sensory neurons in TrkBCreERT2::AviliDTR mice; assay type: in vivo, mouse; details: systemic injection; DRG sections
IL31 Receptor A (IL31RA) = assay: Binding studies in primary keratinocyte cultures with BG-Surface549 labelled ligand; parameters: species or system mouse
From the text: The inventors produced recombinant IL31 with a C-terminal fusion of SNAP (IL31^SNAP) in E. Coli. […] To determine whether IL31^SNAP was functional the inventors first performed binding studies in primary keratinocyte cultures. IL31^SNAP was labelled in vitro with BG-Surface549 and applied to keratinocytes from wildtype or IL31 Receptor A (IL31RA) knockout mice (IL31RA^−/−). […] The inventors further examined IL31^SNAP labelling in vivo by injecting IL31^SNAP-Surface549 intradermally into the back skin of wild type and IL31RA^−/− mice. […] Finally, the inventors determined whether IL31^SNAP was active by quantifying scratching behavior in mice upon intradermal injection. […] Thus the IL31^SNAP retains the functional properties of native IL31.
Primary keratinocytes were isolated from 1-3 day-old wild type and IL31RA^−/− mice as previously described (25). Briefly, newborn mouse skin was removed and incubated flat in cold and freshly thawed trypsin overnight, at 4° C., with the dermis side down. The next day, epidermis was peeled off, triturated and keratinocytes were cultured in serum free media (Invitrogen #10744-019) on Collagen I (Sigma #3867)-coated dishes (Ibidi #81151). All experiments were performed on 48-72 hours cultured cells.
Cells were incubated with the coupling reaction for […] at 37° C., then washed 3 times in CIB; and imaged using confocal microscope.

[3] = test system: wild type and IL31RA^−/− mice; assay: Scratching behavior upon intradermal injection of the ligand; assay type: in vivo, mouse; details: 5 μM
[4] = test system: phosphorylated Akt, pMAPK and pSTAT3; assay: Immunoblot of IL31 downstream signaling in injected skin; assay type: in vivo, mouse; details: skin harvested 1 hour after subcutaneous injection, 5 μM
From the text: A conceptual problem of using IL31^SNAP therapeutically is that it in itself evokes itch. The inventors therefore sought to engineer IL31^SNAP to obtain a ligand that still binds to IL31 receptor complex but no longer promotes signaling. […] The K138A mutation denotes the murine IL31 mutations. The corresponding mutation in the human IL31 protein is at position K134 in the human IL31 (SEQ ID NO: 1). The inventors generated a recombinant IL31^K138A-SNAP fusion protein, labelled it with BG-Surface549 and applied it to keratinocytes. […] Importantly, such signal was not present in IL31RA^−/− keratinocytes (FIG. 2b). The inventors further assessed cellular signaling pathways activated by IL31^SNAP and […] in the skin by examining levels of phosphorylated Akt, pMAPK and pSTAT3 which have all been previously implicated in IL31 downstream signaling (14, 21, 22). […]
To assess the coupling reaction, 10 and 20 pmol IL31^SNAP was coupled with 30 and 60 pmol BG549 respectively for 1 hour at 37° C. […] The bands corresponding to the binding of IL31^SNAP with BG549 were visualized by gel fluorescence. […] Protein lysate was quantified by Bradford assay. […] Bands were visualized using the ECL detection system (Amersham #RPN2106); band density was calculated using ImageJ and the levels of phosphorylated proteins were normalized to the total counterpart.

## BG-PEG11-IRDye®700DX [IR700]
[1]
  cell death after near infrared illumination: not evident
[2]
  development of atopic dermatitis-like indicators: ineffective at blocking the progression of the condition
TrkB positive afferents
  innervation of hairy and glabrous skin: no apparent reduction in innervation
Primary keratinocytes
  cell death after illumination: not evident

## diphtheria toxin
TrkB positive neurons
  ablation of TrkBCreERT2::AviliDTR and TrkB mRNA positive neurons: ~90%
  expression of other markers: no change
  reduction in the number of NF200 positive neurons: ~40%

B1: IL31^SNAP: recombinant IL31 with a C-terminal fusion of SNAP, produced in E. Coli (protein)
chain: TCSLSFGAPISKEDLRTTIDLLKQESQDLYNNYSIKQASGMSADESIQLPCFSLDREALTNISVIIAHLEKVKVLSENTVDTSWVIRWLTNISCFNPLNLNISVPGNTDESYDCKVFVLTVLKQFSNCMAELQAKDNTTC
modifications: left off: small tags and cut ends
notes: recombinant IL31 with a C-terminal fusion of SNAP, produced in E. Coli
IL31 Receptor A (IL31RA); IL31RA^−/− keratinocytes
  fluorescent signal in keratinocytes: not present
IL31 Receptor A (IL31RA); wildtype keratinocytes
  fluorescent signal in keratinocytes: strong fluorescent signal internalized
[3]; IL31RA^−/− mice
  scratching behavior evoked by the ligand: did not evoke scratching
[3]; wildtype mice
  scratching behavior evoked by the ligand: evoked robust scratching; also recorded: induced robust scratching
[4]
  phosphorylation of Akt, MAPK and STAT3 in skin: increased phosphorylation in each pathway

B2: IL31: native recombinant IL31 (Peprotech) (protein)
chain: B1 chain
[3]; IL31RA^−/− mice
  scratching behavior evoked by the ligand: did not evoke scratching

B3: IL31^K138A-SNAP: recombinant fusion protein of murine IL31 point mutant K138A with SNAP (protein)
chain: B1 chain with K115A
modifications: left off: small tags and cut ends
IL31 Receptor A (IL31RA); IL31RA^−/− keratinocytes
  fluorescent signal in keratinocytes: not present
IL31 Receptor A (IL31RA); wildtype keratinocytes
  fluorescent signal in keratinocytes: Pronounced fluorescence
[3]; wildtype mice
  scratching behavior evoked by the ligand: did not evoke any scratching above baseline levels
[4]
  phosphorylation of Akt, MAPK and STAT3 in skin: increase was absent
